According to the DeepSol protein solubility set:

assay: soluble on expression in E. coli; label from the status in PepcDB or PDB records

Soluble on expression in E. coli, not soluble:
MGSDKIHHHHHHMITYFELKNFRSFSNITLDLRKAYGKPKKVVFIYGENGSGKSNLMSSFLFLLQTLNTFKNQVELKDMPEYKSNLFESIKDDKIRHQLLQQILHMQFITLSNLIDEYKMLGNEKNMSTKFGFRIEESDGSYFMEFSKDKIIKEELRYQINEREGTVFSISKNQITLSPTVFLDLDYKKELQDNIEKYWGKHTFMAILCNEIETKNSNYIKAKINKNLLNVIWEMRGLSVWCKECHGETARISIPLKFMRQLDEGSVKDQNNKELKLCETALNTFFTQLYSDIKAVHYVFTPNENDYSYELCFKKLIDGKLIDIPISLESTGTRKLLEIFPMLFGSVAGTPVFVDEIDSGIHDVLMKNLLERLLESIEGQLIATTHNTLLMESLPTENTYIIRVNATGNKSIDCVANYRQRTQKTNSMRNKYLRGDYDGIPYTGYFDFQELVEDVLDNIPSSDNEDGDEA, GGVQLNFGGNFTYNKNEILSLGNVDVQKDARTIRMVGKEFNAFYGYKSDGIFQSKEEIANAPKYTMISNDRLIPGDIKLVDINGDGEINPDDKVILSSENPKYTFAFNLGARWKMFDINLFFQGAAGVSRYFTDEFYGEFNGDSGHPSNHWLGRWTPENPTNKWPRASKFRTYNLPETTCSDFWLVNTNYLRLKDIQVGFNVPKEWLQAVRLGSARIYYSGTNLLTFSKTPQGIDPEAPAGWGAYYPHVKTHSIGINITL, RVTVMLAAFEGWNDAGEAASDALHYLNKLWDGKKVATVDAEEYYDFQFTRPTVRRTSSGARKVKWPSTRIYKAEVPDSNVDVVLVLGTEPSYRWRAYTTELLVHAEALKVDSVILVGALLADVPHSRPIPVSTTTEDSSLRERLNLEASQYEGPVGIVGVLAEFAMLAGLPTVSLWAAVPHYVAQPPSPKAQLAILHRIEDLLQVPLDSQALAEESEAWERGVDELATEDPEITAYVRQLEEAKDTADLPE, MSIFNKDALSSFFGLSGEEDDYYDNYEEYEERKAVNEPPRRAARPKPQRPVQQQESYSQPAYTQQSEPVVEKPSARYRSAEAHQERDTQQAAYTEKKVVSMRSSNQSATTNTRRAQESTANAKTHKITIIEPRVYSEAMSIAKHLFAEEAVLVNFTLVEEDQARRIVDFLTGTVYALDGDIQRVGNEIFLCTPANMEIDSATAQSLANKQFFDFLEHHHHHH, MGSDKIHHHHHHMNETVSLETREVRFLSVFDFDGTLTYRDSFVPFLRFAFGNRVFVRRMLRMAGPSLAYLCRRIDRDDLKARLIATFLTDVPVHVLEERALAYQNRFWETLMRPHALTAVADQVSSGSTVTICSASPSLLLRPFAEKLGVHLIATELEVVDGVLTGRIVGRNCRRDEKVCRLERHYGPLTQYSLRAWGDSRGDTELLAAALERFWKPFR, MTVEERSNTAKVDILGVDFDNTTMLQMVENIKTFFANQSTNNLFIVTANPEIVNYATTHQAYLELINQASYIVADGTGVVKASHRLKQPLAHRIPGIELMDECLKIAHVNHQKVFLLGATNEVVEAAQYALQQRYPNISFAHHHGYIDLEDETVVKRIKLFKPDYIFVGMGFPKQEEWIMTHENQFESTVMMGVGGSLEVFAGAKKRAPYIFRKLNIEWIYRALIDWKRIGRLKSIPIFMYKIAKAKRKIKKAK, MFFSFKIDGDELDKRMGGGVYVGQLFTIFGDNSEGKTLLSLRLAYGFLKNGISITYVSSQMPVREFISFSDALGYPVLNSVISGSMLYITPVFMLRRTRRANLDELINNDRIKEKSVLIIDSLNPGMFRDFEINSYMEKLRKFSENRVVIITANQASLDDATVLRINQLSTTIVTLHSKELGGVKRHFIDLVKYPMVVRSIQQSIPFRVEPGRGLIVEISSVS, FASFSNFTLKYHEKRFQQYGYGLMLNDTNFPGGSSGSPLIGKDNKLNSIYFGVLEIYQSGSLARNDIGMSQILRTPQ, MGSDKIHHHHHHMLNSIMEDKKELLKSLLRQIHEGRDVSELKEQFKDVLASISPLEIPLIEQELVKEGISTREIAKMCDIHVELFRESVEGAFSVEDIPEGHPLHTLFMENREIVKDAEMLALLANTLEREMKGEILEEMESVVAELIKVGHTHYNREEMLIFPYIERRGITAIPNVLWFKHDEIRAALRVLHRLLTTDTGERWEEHIKRVVEKAREVSSAMLDMVFRENNIFYPTLKVLLSEGEWRAIREQEEIIGYYKLKPAEWKSDAKPVHPYEIDTTITAEQLISLPEEVQNLLKGQLLKPDSYEVVREDDLRLDEGYLSQREINAIFKALPFDITFVDSNDRVRFFSGSDRIFARTPSVIGRRVHLCHPPRSVHIVDKILKAFRNGERDFAEFWINMGGRIIHIRYFAVRDEGEYLGTVEVVQDVTEIKRLEGEKRLLGWK, MLSLAFGVNDIYEYEGKEYKLDLAFDNVLRVIDLTEDNSLSDVFRANLAIDVLFADDMPWPRSNEEDEYANIEEKSLVLIDIFTNYIVKENDDGLLYDIDGNKMPSATNNEDAEEIASYSLTQDADYIYASFLQDYNIDLLDSRGKMHWYKFRALLESLRDDTTIKTIIGIRQAELPSGKGTEKERNELIKLKNRYKLKD, MGSDKIHHHHHHMRILTFTGKGGVGKTSVSAATAVRLSEMGHRTLVLSTDPAHSLSDSFNIQLGAEPTKIKENLHAIEVNPYVDLKQNWHSVQKYYTRIFMAQGVSGVMADEMTILPGMEELFSLLRIKRYKSAGLYDALVLDTAPTGETLRLLSLPDTLSWGMKAVKNVNKYIVRPLSKPLSKMSDKIAYYIPPEDAIESVDQVFDELEDIREILTDNVKSTVRLVMNAEKMSIKETMRALTYLNLYGFKVDMVLVNKLLDAQENSGYLEKWKGIQQKYLGEIEEGFSPLPVKKLKMYDQEIVGVKSLEVFAHDIYGDTDPSGMMYDEPPIKFVRQGDVYEVQLKLMFANPVDIDVWVTGDELFVQIGNQRKIITLPVSLTGLEPGDAVFKDKWLHIPFDLEKQGQHHRTREYNKA, MGSDKIHHHHHHMSKIGLTTTVPVEVIYAAGDTPVDLNNIFISDTREAMLRIEEAELAGYPRNVCGWIKGLYATALKSPEIKKIVAVTQGDCSNTHALMETWSEEGIEIIPFAFPYDRDGDMLRLQLEKLITALGTTWDQVREQKVRLDQVRQLAWEIDRLTWQENQVRGFENHLHLVSCSDFNGDPEGFARDLEGFIAEAREREPLNLQFKGRKKRELRLGFMGVPPIMPDLYNFLEEHGARVVFNEVQRQFSMPFATEDIVEQYQLYTYPYNVFGRIEDVAQEAERRQLDGLIHYTQSFCYRQIEDLIVRRRLDYPILNLEGENPTGLDARSKMRLESFLQMLRD, MLNGSCLCGRVAYTVDGPLADVVNCHCAMCRKAHGAAFRTRATVRAEHFAFVRGESDITWYSSSPGNYRGFCSACGTPLLSRFDQTPDVYALPLGALDDDPGVKAACHVYVAHKAPWHDITDDLPRHPEGRPG, MGSDKIHHHHHHAEQKEEGISVLRYDKLLSEYVRSNSFSAMQKLTMDYRQPTKILIEDVLSIGTVKDDTISQRLQKFYSDSTLLRLLSDVEAKYPNLDEVEKGLTKGFRKLKKEVPDTKIPFIYSQISAFNESIILVDTLLGISLDKYMGEDYPLYKRFYYDYQCTSMRPERIVPDCFAFYLLSRYEMNYHEGTCLVDLMMHSGKINYVVQHLLGYDDIGQAMGYSDQENEWCRKNEKDIWEYICANDHLHARDPMVIRYYMKPAPTVDMLGGQAPALIGSWVGARIIASYMKKHKDLKIKDLLELTDYQSMFEESGYLKL, MEEERQQSPLEGLSEEALKHVHQLDEPIPIELQASYFRLSAEMRRRGIQLSENEVQDAEQLLFDPVLSDDIKKMTLLRLAITGNITVFRIIERYLESAPDSMRPWALMAQLEARIGILSDLVDEKQLVITSGLGGHDGMMRFMAFLHTDKLQDFEHYQEELIEKELLYRIGKASGEVERLEMHNNYLLLTFLVPINYDLRNFFSSFIAECNQFGHFLSTTFIITNTQLLTPQGAQVALKKYAEENDLPATN

Soluble on expression in E. coli, soluble:
MQKSYGVALESPTGSGKTIMALKSALQYSSERKLKVLYLVRTNSQEEQVIKELRSLSSTMKIRAIPMQGRVNMCILYRMVDDLHEINAESLAKFCNMKKREVMAGNEAACPYFNFKIRSDETKRFLFDELPTAEEFYDYGERNNVCPYESMKAALPDADIVIAPYAYFLNRSVAEKFLSHWGVSRNQIVIILDEAHNLPDIGRSIGSFRISVESLNRADREAQAYGDPELSQKIHVSDLIEMIRSALQSMVSERCGKGDVRIRFQEFMEYMRIMNKRSEREIRSLLNYLYLFGEYVENEKEKVGKVPFSYCSSVASRIIAFSDQDEEKYAAILSPEDGGYMQAACLDPSGILEVLKESKTIHMSGTLDPFDFYSDITGFEIPFKKIGEIFPPENRYIAYYDGVSSKYDTLDEKELDRMATVIEDIILKVKKNTIVYFPSYSLMDRVENRVSFEHMKEYRGIDQKELYSMLKKFRRDHGTIFAVSGGRLSEGINFPGNELEMIILAGLPFPRPDAINRSLFDYYERKYGKGWEYSVVYPTAIKIRQEIGRLIRSAEDTGACVILDKRAGQFRKFIPDMKKTSDPASDIYNFFISAQAREKYGA, MSLAEVGSKSVLFVCLGNICRSPIAEAVFRKLVTDEKVSDNWAIDSSAVSDWNVGRPPDPRAVSCLRNHGISTAHKARQITKEDFATFDYILCMDESNLRDLNRKSNQVKNCKAKIELLGSYDPQKQLIIEDPYYGNDSDFEVVYQQCLRCCKAFLEKTYEGHHHHHH, MGSDKIHHHHHHMNESERKIVEEFQKETGINFKNEELLFRALCHSSYANEQNQAGRKDVESNEKLEFLGDAVLELFVCEILYKKYPEAEVGDLARVKSAAASEEVLAMVSRKMNLGKFLFLGKGEEKTGGRDRDSILADAFEALLAAIYLDQGYEKIKELFEQEFEFYIEKIMKGEMLFDYKTALQEIVQSEHKVPPEYILVRTEKNDGDRIFVVEVRVNGKTIATGKGRTKKEAEKEAARIAYEKLLKERS, VTLLVKSPNQRHRDLELSGDRGWSVGHLKAHLSRVYPERPRPEDQRLIYSGKLLLDHQCLRDLLPKQEKRHVLHLVCNVK, MSLKRITMQDIADRLNISKNSVSQALRGKEGVSKETRELVKRVAKEMGYEYPASRAKSRGKPPRQIALIASDRTFSLKFFGEIYLSIEQEALSHGMKLHIQSVNKEQKERLLLPSFIEEKQVDGVIVLSHISTEYIQQIVATGIPTVLVDHHHPNIPADAVLTNNRFGAYVAVQHLLELNHTDIAFVGDVNYSPSYQERYEGYLLALKDYGVKPNEEWMFCQAQEDETVIAGYIRELKRQPTAWFCVNDGLGFFVSTGLQQYGLKVPDDVSVCSFDNGQLSQIATPKITTVDIDLKRYGKRAVELLRWRWDNPNEPFQEVLLSTKLIKRESTAAKPTREGHHHHHH, GSAHRFPALTQEQKKELSEIAQSIVANGKGILAADESVGTMGNRLQRIKVENTEENRRQFREILFSVDSSINQSIGGVILFHETLYQKDSQGKLFRNILKEKGIVVGIKLDQGGAPLAGTNKETTIQGLDGLSERCAQYKKDGVDFGKWRPVLRIADQCPSSLAIQENANALARYASICQQNGLVPIVEPEVIPDGDHDLEHCQYVTEKVLAAVYKALNDHHVYLEGTLLKPNMVTAGHACTKKYTPEQVAMATVTALHRTVPAAVPGICFLSGGMSEEDATLNLNAINLCPLPKPWKLSFSYGRALQASALAAWGGKAANKEATQEAFMKRAMANCQAAKGQYVHTGSSGAASTQSLFTACYTY, MPGVTVKEIDQHVLTKNMAAFLKKSGKIFVPEQAVYMKTGKFKETAPTDDDWFYTRCASIMRHLYLRSPAGVGAFTKVYSGRKRNGVRPSKHCRSSDGCIRKALQALEAANMVERHPDGGRKLTPQGQRNLDRIANKIVAKQRERSAPVSMIITTLEHHHHHH
